22 molecules from patent US20240002497A1 (Merck Sharp & Dohme, published 2024) can be followed below.

What is called EC50 is the concentration needed to bring the measured effect to its halfway point.

For one experiment, the target named is T1, huNav1.7α + β1-β2-β3 (human, UniProt Q15858 1-1988; A5A6L6 19-218; O60939 30-215; Q2KI11 23-215).
T1 construct: Cell line (CHO FlpIn, HEK FlpIn, transient HEK293T) is named under assay; also called huNav1.7-beta1-beta2-beta3; human Nav1.7α with Navβ1, Navβ2 and Navβ3
Kind of experiment: binding FACS, CHO FlpIn cells. How it is done: (§1) Binding of the ISVDs to cell-expressed Nav1.7α was detected via murine anti-Flag (Sigma, catalog #F1804). Briefly, cells were resuspended in FACS buffer (PBS, 10% FBS, NaN₃) and transferred to a 96-well V-bottom plate at 1×10^5 cells/well. Purified FLAG3-tagged ISVD was diluted in FACS buffer and added to the cells for 30 minutes at 4° C. […] Prior to the read-out, the samples were resuspended in 1 μg/mL propidium iodide (Sigma, catalog #P4170) to exclude dead cells. Between each step, the cells were centrifuged for 5 minutes at 200 grams and washed with 100 μL/well FACS buffer.

A further experiment deals with T2, rhNav1.7α + β1-β2-β3 (rhesus monkey).
T2 construct: also called rhNav1.7-beta1-beta2-beta3; rhesus Nav1.7α
Kind of experiment: binding FACS, CHO FlpIn cells. How it is done: as §1

B1: F010302344 (VHH)
VHH: EVQLVESGGGVVQPGGSLRLSCAASHRQFIRDVFTGWYRQAPGKQRELVARIYNEGNTQYADSAKGRFTISRDNAKKTVYLQMNSLRPEDTALYYCLFSGTISTGREYRSGDYWGQGTLVTVSS
For the molecule B1, in the experiment with huNav1.7α + β1-β2-β3, the Bmax turned out to be 100% and the concentration giving a half-maximal response (EC50) was determined as 4.3 nM. Further, in the experiment with rhNav1.7α + β1-β2-β3, the Bmax was 78% and the EC50 turned out to be 13 nM.

B2: F010302346 (VHH)
VHH: EVQLVESGGGVVQPGGSLRLSCAASHRAFIRDVFTGWYRQAPGKQRELVARIYESGNTQYADSAKGRFTISRDNAKKTVYLQMNSLRPEDTALYYCLFSGTISTGREYRSGDYWGQGTLVTVSS
For B2, in the experiment with huNav1.7α + β1-β2-β3, the Bmax was 100% and the half-maximal effective concentration (EC50) amounted to 5 nM. In the experiment with rhNav1.7α + β1-β2-β3, the Bmax was 99% and the half-maximal effective concentration (EC50) was determined as 12 nM.

B3: F010302365 (VHH)
VHH: EVQLVESGGGVVQPGGSLRLSCAASSRAFIRDVFTGWYRRAPGKQRELVARIYNGGNTNYADSAKGRFTISRDNAKKTVYLQMNSLRPEDTALYYCLFSGTISTGREYRSGDYWGQGTLVTVSS
For the molecule B3, in the experiment with huNav1.7α + β1-β2-β3, the Bmax was 100% and the concentration giving a half-maximal response (EC50) came out at 3.1 nM. Moreover, in the experiment with rhNav1.7α + β1-β2-β3, the binding result was “no binding”.

B4: F010302364 (VHH)
VHH: EVQLVESGGGVVQPGGSLRLSCAASHRAFIRDLFTGWYRQAPGKQRELVARIYESGNTNYADSVKGRFTISRDNAKKTVYLQMNSLRPEDTALYYCLFSGTISTGREYRSGDYWGQGTLVTVSS
Regarding B4, in the experiment with huNav1.7α + β1-β2-β3, the Bmax was 100% and the EC50 was 7.2 nM. In the experiment with rhNav1.7α + β1-β2-β3, the Bmax was 74% and the concentration giving a half-maximal response (EC50) stood at 17 nM.

B5: F010302362 (VHH)
VHH: EVQLVESGGGVVQPGGSLRLSCAASHRAFIRDVFTGWYRQAPGKQRELVARIYESGNTQYADSVKGRFTISRDNAKKTVYLQMNSLRPEDTALYYCLFSGTISTGREYRSGDYWGQGTLVTVSS
As for B5, the Bmax with huNav1.7α + β1-β2-β3 amounted to 100%; with rhNav1.7α + β1-β2-β3 it was 89%. In addition, the EC50 amounted to 5.4 nM in the experiment with huNav1.7α + β1-β2-β3 and 14 nM with rhNav1.7α + β1-β2-β3.

B6: F010302356 (VHH)
VHH: EVQLVESGGGVVQPGGSLRLSCAASHRAFIRDLFTGWYRRAPGKQRELVARIYESGNTNYADSVKGRFTISRDNAKKTVYLQMNSLRPEDTALYYCLFSGTISTGREYRSGDYWGQGTLVTVSS
Take B6: the Bmax with huNav1.7α + β1-β2-β3 came to 100%; with rhNav1.7α + β1-β2-β3, 81%. The half-maximal effective concentration (EC50) in the experiment with huNav1.7α + β1-β2-β3 is 5.3 nM; with rhNav1.7α + β1-β2-β3, 12 nM.

B7: F010302359 (VHH)
VHH: EVQLVESGGGVVQPGGSLRLSCAASSRQFIRDVFTGWYRQAPGKQRELVARIYESGNTQYADSVKGRFTISRDNAKKTVYLQMNSLRPEDTALYYCLFSGTISTGREYRSGDYWGQGTLVTVSS
Take B7: in the experiment with huNav1.7α + β1-β2-β3, the Bmax was 100% and the concentration for a half-maximal effect (EC50) stood at 6.4 nM. In the experiment with rhNav1.7α + β1-β2-β3, the Bmax is 66% and the EC50 worked out at 24 nM.

B8: F010302354 (VHH)
VHH: EVQLVESGGGVVQPGGSLRLSCAASHRAFIRDVFTGWYRRAPGKQRELVARIYESGNTQYADSVKGRFTISRDNAKKTVYLQMNSLRPEDTALYYCLFSGTISTGREYRSGDYWGQGTLVTVSS
As for B8, in the experiment with huNav1.7α + β1-β2-β3, the Bmax was found to be 100% and the concentration giving a half-maximal response (EC50) came to 4.2 nM. Moreover, in the experiment with rhNav1.7α + β1-β2-β3, the Bmax was determined as 96% and the concentration for a half-maximal effect (EC50) was found to be 7.9 nM.

B9: F010302361 (VHH)
VHH: EVQLVESGGGVVQPGGSLRLSCAASHRQFIRDVFTGWYRQAPGKQRELVARIYEGGNTQYADSVKGRFTISRDNAKKTVYLQMNSLRPEDTALYYCLFSGTISTGREYRSGDYWGQGTLVTVSS
Consider B9, for which, in the experiment with huNav1.7α + β1-β2-β3, the Bmax worked out at 100% and the 50% effective concentration (EC50) came out at 4.8 nM. Moreover, in the experiment with rhNav1.7α + β1-β2-β3, the Bmax was found to be 92% and the EC50 was 11 nM.

B10: F010302368 (VHH)
VHH: EVQLVESGGGVVQPGGSLRLSCAASSRAFIRDVFTGWYRQAPGKQRELVARIYNGGNTNYADSVKGRFTISRDNAKKTVYLQMNSLRPEDTALYYCLFSGTISTGREYRSGDYWGQGTLVTVSS
Turning to B10, in the experiment with huNav1.7α + β1-β2-β3, the Bmax was 100% and the EC50 is 3.9 nM. The binding result in the experiment with rhNav1.7α + β1-β2-β3 is recorded as “no binding”.

B11: F010302358 (VHH)
VHH: EVQLVESGGGVVQPGGSLRLSCAASSRQFIRDVFTGWYRQAPGKQRELVARIYNEGNTQYADSVKGRFTISRDNAKKTVYLQMNSLRPEDTALYYCLFSGTISTGREYRSGDYWGQGTLVTVSS
B11: in the experiment with huNav1.7α + β1-β2-β3, the Bmax is 100% and the EC50 came out at 4.5 nM. Besides, in the experiment with rhNav1.7α + β1-β2-β3, the Bmax is 37% and the EC50 was determined as 37 nM.

B12: F010302353 (VHH)
VHH: EVQLVESGGGVVQPGGSLRLSCAASHRQFIRDVFTGWYRRAPGKQRELVARIYEGGNTQYADSVKGRFTISRDNAKKTVYLQMNSLRPEDTALYYCLFSGTISTGREYRSGDYWGQGTLVTVSS
As to B12, in the experiment with huNav1.7α + β1-β2-β3, the Bmax was determined as 100% and the EC50 turned out to be 4.2 nM. Besides, in the experiment with rhNav1.7α + β1-β2-β3, the Bmax amounted to 93% and the EC50 is 7.9 nM.

B13: F010302360 (VHH)
VHH: EVQLVESGGGVVQPGGSLRLSCAASHRQFIRDVFTGWYRQAPGKQRELVARIYNEGNTQYADSVKGRFTISRDNAKKTVYLQMNSLRPEDTALYYCLFSGTISTGREYRSGDYWGQGTLVTVSS
As for B13, in the experiment with huNav1.7α + β1-β2-β3, the Bmax was found to be 100% and the EC50 came to 3.5 nM. Moreover, in the experiment with rhNav1.7α + β1-β2-β3, the Bmax stood at 58% and the concentration giving a half-maximal response (EC50) worked out at 15 nM.

B14: F010302357 (VHH)
VHH: EVQLVESGGGVVQPGGSLRLSCAASSRQFIRDVFTGWYRQAPGKQRELVARIYNEGNTNYADSVKGRFTISRDNAKKTVYLQMNSLRPEDTALYYCLFSGTISTGREYRSGDYWGQGTLVTVSS
With B14, in the experiment with huNav1.7α + β1-β2-β3, the Bmax stood at 100% and the concentration giving a half-maximal response (EC50) was determined as 5.3 nM. Moreover, the binding result with rhNav1.7α + β1-β2-β3 is on record as “no binding”.

B15: F010302348 (VHH)
VHH: EVQLVESGGGVVQPGGSLRLSCAASHRAFIRDLFTGWYRQAPGKQRELVARIYESGNTNYADSAKGRFTISRDNAKKTVYLQMNSLRPEDTALYYCLFSGTISTGREYRSGDYWGQGTLVTVSS
B15: in the experiment with huNav1.7α + β1-β2-β3, the Bmax is 100% and the EC50 was 6.7 nM. Besides, in the experiment with rhNav1.7α + β1-β2-β3, the Bmax is 95% and the 50% effective concentration (EC50) stood at 14 nM.

B16: F010302366 (VHH)
VHH: EVQLVESGGGVVQPGGSLRLSCAASSRAFIRDVFTGWYRQAPGKQRELVARIYNGGNTNYADSAKGRFTISRDNAKKTVYLQMNSLRPEDTALYYCLFSGTISTGREYRSGDYWGQGTLVTVSS
In the case of B16, in the experiment with huNav1.7α + β1-β2-β3, the Bmax was 100% and the EC50 came out at 3.7 nM. Also, the binding result with rhNav1.7α + β1-β2-β3 is recorded as “no binding”.

B17: F010302352 (VHH)
VHH: EVQLVESGGGVVQPGGSLRLSCAASHRQFIRDVFTGWYRRAPGKQRELVARIYNEGNTQYADSVKGRFTISRDNAKKTVYLQMNSLRPEDTALYYCLFSGTISTGREYRSGDYWGQGTLVTVSS
As to B17, the Bmax turned out to be 100% with huNav1.7α + β1-β2-β3 and 60% with rhNav1.7α + β1-β2-β3. Also, the EC50 with huNav1.7α + β1-β2-β3 is 3.6 nM; with rhNav1.7α + β1-β2-β3, 11 nM.

B18: F010302355 (VHH)
VHH: EVQLVESGGGVVQPGGSLRLSCAASHRAFIRDVFTGWYRRAPGKQRELVARIYEGGNTQYADSVKGRFTISRDNAKKTVYLQMNSLRPEDTALYYCLFSGTISTGREYRSGDYWGQGTLVTVSS
As for B18, in the experiment with huNav1.7α + β1-β2-β3, the Bmax came out at 100% and the concentration for a half-maximal effect (EC50) was 3.5 nM. Besides, in the experiment with rhNav1.7α + β1-β2-β3, the Bmax was 97% and the EC50 stood at 6.8 nM.

B19: F010302350 (VHH)
VHH: EVQLVESGGGVVQPGGSLRLSCAASSRQFIRDVFTGWYRRAPGKQRELVARIYNEGNTQYADSVKGRFTISRDNAKKTVYLQMNSLRPEDTALYYCLFSGTISTGREYRSGDYWGQGTLVTVSS
As for B19, the Bmax with huNav1.7α + β1-β2-β3 turned out to be 100%; with rhNav1.7α + β1-β2-β3, 46%. For the same molecule, the values for the EC50 in the experiment with huNav1.7α + β1-β2-β3 and with rhNav1.7α + β1-β2-β3 were 3.5 nM and 15 nM, respectively.

B20: F010302347 (VHH)
VHH: EVQLVESGGGVVQPGGSLRLSCAASHRAFIRDVFTGWYRQAPGKQRELVARIYEGGNTQYADSAKGRFTISRDNAKKTVYLQMNSLRPEDTALYYCLFSGTISTGREYRSGDYWGQGTLVTVSS
Take B20: in the experiment with huNav1.7α + β1-β2-β3, the Bmax worked out at 100% and the 50% effective concentration (EC50) was determined as 4.6 nM. In addition, in the experiment with rhNav1.7α + β1-β2-β3, the Bmax was 100% and the EC50 was 9.6 nM.

B21: F010302351 (VHH)
VHH: EVQLVESGGGVVQPGGSLRLSCAASSRQFIRDVFTGWYRRAPGKQRELVARIYESGNTQYADSVKGRFTISRDNAKKTVYLQMNSLRPEDTALYYCLFSGTISTGREYRSGDYWGQGTLVTVSS
B21: in the experiment with huNav1.7α + β1-β2-β3, the Bmax turned out to be 100% and the concentration giving a half-maximal response (EC50) is 5.6 nM. In the experiment with rhNav1.7α + β1-β2-β3, the Bmax was 72% and the EC50 is 15 nM.

B22: F010302363 (VHH)
VHH: EVQLVESGGGVVQPGGSLRLSCAASHRAFIRDVFTGWYRQAPGKQRELVARIYEGGNTQYADSVKGRFTISRDNAKKTVYLQMNSLRPEDTALYYCLFSGTISTGREYRSGDYWGQGTLVTVSS
Take B22: in the experiment with huNav1.7α + β1-β2-β3, the Bmax is 100% and the half-maximal effective concentration (EC50) stood at 4.2 nM. Also, in the experiment with rhNav1.7α + β1-β2-β3, the Bmax was 96% and the EC50 is 9.3 nM.
